Test results taken from US6881827B2, “Molecular cloning of a 7TM receptor (AXOR34) and screening methods thereof” (SmithKline Beecham Corporation, priority 1999, dated 2005).

molecular target: T1, AXOR34 (Homo sapiens, UniProt Q9GZQ4); test: FLIPR calcium mobilization assay in HEK-293 cells transiently transfected with AXOR34; format: cell-based; settings: ligand concentrations 1 μM-0.1 nM
T1 construct: expressed in transfected cells; host or cells: HEK-293 cells, transient transfection (pCDN vector as the empty-vector control)
Excerpt: There was no concentration-dependent activity for pCDNs or untransfected cells.

T1 sequence (Q9GZQ4 whole entry): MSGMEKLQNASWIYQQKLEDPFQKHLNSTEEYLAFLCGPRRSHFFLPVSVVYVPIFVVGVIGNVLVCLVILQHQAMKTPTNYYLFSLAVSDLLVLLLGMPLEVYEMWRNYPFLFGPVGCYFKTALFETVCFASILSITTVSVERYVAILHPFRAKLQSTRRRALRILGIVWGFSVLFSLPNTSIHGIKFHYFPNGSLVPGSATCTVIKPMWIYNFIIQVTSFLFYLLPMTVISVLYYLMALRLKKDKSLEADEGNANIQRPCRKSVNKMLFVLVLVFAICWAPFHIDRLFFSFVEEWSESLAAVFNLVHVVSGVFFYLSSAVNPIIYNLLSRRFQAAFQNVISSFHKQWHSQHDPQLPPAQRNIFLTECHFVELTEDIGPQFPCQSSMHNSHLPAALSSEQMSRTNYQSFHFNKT

calcium mobilization response	Substance
robust calcium mobilization responses	porcine Neuromedin U-8 [porcine NmU-8]
robust calcium mobilization responses	porcine Neuromedin U-25 (FLVDEEFQGPIVSQNRRYFLFRPRN; HOMO SAPIENS) [porcine NmU-25]
robust calcium mobilization responses	rat Neuromedin U-23 (YKVNEYQGPVAPSGGFFLFRPRN; HOMO SAPIENS) [rat NmU-23]
